# Laboratory results from the supplement of paper PMC9112550, “Optimization of the antimicrobial peptide Bac7 by deep mutational scanning” (BMC Biology, 2022).
# Tested on: Escherichia coli TOP10
# Assay: shrunken log2 fold change of peptide-encoding DNA abundance (4.5 h post-induction vs induction); higher = less antimicrobial activity (less host growth inhibition)
# Conditions: time post-induction: 4.5 h; library: site-saturation at positions 5, 18, 19, 20
# 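Further: peptides expressed intracellularly from a pBAD plasmid library in pooled LB shake-flask culture, induced with 0.3% L-arabinose, DNA abundance read by NGS, three biological replicates, DESeq2 with apeglm shrinkage.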
row,Sequence,shrunken log2 fold change
1,RRIRNRPPRLPRPRPRPNDAPRP,-0.221
2,RRIRVRPPRLPRPRPRPEDAPRP,0.801
3,RRIRMRPPRLPRPRPRPHVSPRP,-0.0138
4,RRIRDRPPRLPRPRPRPGDQPRP,0.282
5,RRIRNRPPRLPRPRPRPGLPPRP,0.028
6,RRIRRRPPRLPRPRPRPETHPRP,0.697
7,RRIRLRPPRLPRPRPRPYHQPRP,-0.026
8,RRIRLRPPRLPRPRPRPCFPPRP,-0.206
9,RRIRIRPPRLPRPRPRPLQWPRP,-0.013
10,RRIRRRPPRLPRPRPRPKDPPRP,0.121
11,RRIRWRPPRLPRPRPRPNNRPRP,-0.559
12,RRIRHRPPRLPRPRPRPVIWPRP,-0.134
13,RRIRERPPRLPRPRPRPQAMPRP,0.00616
14,RRIRDRPPRLPRPRPRPIILPRP,0.0057
15,RRIRMRPPRLPRPRPRPLRKPRP,1.54
16,RRIRARPPRLPRPRPRPTMYPRP,-0.154
17,RRIRRRPPRLPRPRPRPCAYPRP,0.0425
18,RRIRHRPPRLPRPRPRPIMWPRP,-0.0163
19,RRIRVRPPRLPRPRPRPRSDPRP,-0.258
20,RRIRERPPRLPRPRPRPFFAPRP,0.848
21,RRIRCRPPRLPRPRPRPLTYPRP,-0.19
22,RRIRMRPPRLPRPRPRPIEPPRP,0.0361
23,RRIRIRPPRLPRPRPRPSNAPRP,-0.0615
24,RRIRMRPPRLPRPRPRPCDYPRP,-0.163
25,RRIRMRPPRLPRPRPRPLCFPRP,0.562

row,Sequence,shrunken log2 fold change
1,RRIRARPPRLPRPRPRPDQWPRP,0.493
2,RRIRFRPPRLPRPRPRPAWTPRP,-0.0896
3,RRIRHRPPRLPRPRPRPKNEPRP,-0.476
4,RRIRPRPPRLPRPRPRPHPAPRP,0.217
5,RRIRVRPPRLPRPRPRPAWEPRP,0.162
6,RRIRIRPPRLPRPRPRPVPVPRP,0.0789
7,RRIRHRPPRLPRPRPRPQDPPRP,0.0646
8,RRIRPRPPRLPRPRPRPLIQPRP,-0.0119
9,RRIRVRPPRLPRPRPRPQEPPRP,0.0426
10,RRIRERPPRLPRPRPRPFQWPRP,0.0371
11,RRIRTRPPRLPRPRPRPWLFPRP,0.212
12,RRIRLRPPRLPRPRPRPTMPPRP,-0.0783
13,RRIRDRPPRLPRPRPRPHGAPRP,0.211
14,RRIRPRPPRLPRPRPRPADRPRP,0.408
15,RRIRYRPPRLPRPRPRPNQYPRP,-1.18
16,RRIRIRPPRLPRPRPRPMYFPRP,-0.609
17,RRIRARPPRLPRPRPRPSGQPRP,0.251
18,RRIRYRPPRLPRPRPRPPNKPRP,-0.585
19,RRIRNRPPRLPRPRPRPENLPRP,0.00699
20,RRIRSRPPRLPRPRPRPTYQPRP,-0.0198
21,RRIRARPPRLPRPRPRPTLFPRP,0.663
22,RRIRCRPPRLPRPRPRPEDAPRP,-0.0302
23,RRIRTRPPRLPRPRPRPACQPRP,0.0771
24,RRIRDRPPRLPRPRPRPTRCPRP,1.35
25,RRIRLRPPRLPRPRPRPGLTPRP,-0.00899

row,Sequence,shrunken log2 fold change
1,RRIRTRPPRLPRPRPRPVPEPRP,0.323
2,RRIRTRPPRLPRPRPRPHQNPRP,-0.253
3,RRIRQRPPRLPRPRPRPKVSPRP,-0.073
4,RRIRRRPPRLPRPRPRPPHEPRP,0.449
5,RRIRERPPRLPRPRPRPAREPRP,0.0588
6,RRIRVRPPRLPRPRPRPAAVPRP,0.114
7,RRIRARPPRLPRPRPRPSPPPRP,0.67
8,RRIRLRPPRLPRPRPRPLSAPRP,0.0846
9,RRIRARPPRLPRPRPRPSGWPRP,0.861
10,RRIRHRPPRLPRPRPRPVGCPRP,0.0698
11,RRIRARPPRLPRPRPRPNWHPRP,0.163
12,RRIRTRPPRLPRPRPRPVQMPRP,0.000776
13,RRIRHRPPRLPRPRPRPFLSPRP,-0.187
14,RRIRPRPPRLPRPRPRPHTEPRP,0.0462
15,RRIRERPPRLPRPRPRPCARPRP,0.0326
16,RRIRMRPPRLPRPRPRPHKTPRP,0.0147
17,RRIRFRPPRLPRPRPRPQFKPRP,-0.217
18,RRIRIRPPRLPRPRPRPKLFPRP,-0.179
19,RRIRTRPPRLPRPRPRPLECPRP,-0.0489
20,RRIRWRPPRLPRPRPRPNDCPRP,-0.0115
21,RRIRERPPRLPRPRPRPMCDPRP,-0.212
22,RRIRPRPPRLPRPRPRPKIQPRP,0.0394
23,RRIRRRPPRLPRPRPRPWWSPRP,0.105
24,RRIRFRPPRLPRPRPRPHVEPRP,-0.00526
25,RRIRYRPPRLPRPRPRPVLKPRP,-0.122

row,Sequence,shrunken log2 fold change
1,RRIRGRPPRLPRPRPRPPRYPRP,0.701
2,RRIRFRPPRLPRPRPRPTWNPRP,-0.166
3,RRIRFRPPRLPRPRPRPIFAPRP,0.161
4,RRIRARPPRLPRPRPRPVCTPRP,0.434
5,RRIRERPPRLPRPRPRPWLCPRP,-0.0006
6,RRIRPRPPRLPRPRPRPWDHPRP,-0.106
7,RRIRHRPPRLPRPRPRPATYPRP,-0.501
8,RRIRQRPPRLPRPRPRPLYTPRP,-0.671
9,RRIRWRPPRLPRPRPRPDNFPRP,-0.0334
10,RRIRMRPPRLPRPRPRPYIWPRP,-0.402
11,RRIRERPPRLPRPRPRPTAIPRP,0.32
12,RRIRNRPPRLPRPRPRPQQIPRP,-0.23
13,RRIRVRPPRLPRPRPRPHPSPRP,0.168
14,RRIRFRPPRLPRPRPRPEGHPRP,0.0933
15,RRIRIRPPRLPRPRPRPKFFPRP,-0.116
16,RRIRYRPPRLPRPRPRPKDSPRP,-0.0869
17,RRIRRRPPRLPRPRPRPPDHPRP,0.762
18,RRIRARPPRLPRPRPRPGYMPRP,-0.21
19,RRIRLRPPRLPRPRPRPNAQPRP,-0.0471
20,RRIRSRPPRLPRPRPRPMHEPRP,-0.271
21,RRIRCRPPRLPRPRPRPRLKPRP,0.0782
22,RRIRWRPPRLPRPRPRPVWRPRP,0.488
23,RRIRCRPPRLPRPRPRPIKQPRP,-0.062
24,RRIRERPPRLPRPRPRPHHAPRP,0.0055
25,RRIRHRPPRLPRPRPRPLHVPRP,0.146

row,Sequence,shrunken log2 fold change
1,RRIRWRPPRLPRPRPRPYYFPRP,-0.692
2,RRIRKRPPRLPRPRPRPHLEPRP,-0.0191
3,RRIRPRPPRLPRPRPRPDAIPRP,0.148
4,RRIRMRPPRLPRPRPRPLAFPRP,0.52
5,RRIRWRPPRLPRPRPRPFEVPRP,0.0389
6,RRIRGRPPRLPRPRPRPQDKPRP,0.0315
7,RRIRRRPPRLPRPRPRPFESPRP,-0.0115
8,RRIRERPPRLPRPRPRPCINPRP,-0.0818
9,RRIRHRPPRLPRPRPRPRAEPRP,0.12
10,RRIRRRPPRLPRPRPRPDFPPRP,0.897
11,RRIRIRPPRLPRPRPRPKAQPRP,-0.0442
12,RRIRNRPPRLPRPRPRPKAWPRP,0.133
13,RRIRCRPPRLPRPRPRPPQNPRP,0.801
14,RRIRRRPPRLPRPRPRPHYFPRP,-0.173
15,RRIRLRPPRLPRPRPRPQDGPRP,-0.0806
16,RRIRYRPPRLPRPRPRPLTIPRP,-0.0265
17,RRIRSRPPRLPRPRPRPHYRPRP,0.0349
18,RRIRERPPRLPRPRPRPDWLPRP,0.00866
19,RRIRHRPPRLPRPRPRPAYIPRP,-0.00844
20,RRIRSRPPRLPRPRPRPAWNPRP,0.467
21,RRIRCRPPRLPRPRPRPATRPRP,0.366
22,RRIRCRPPRLPRPRPRPQEHPRP,-0.389
23,RRIRKRPPRLPRPRPRPCTKPRP,0.0518
24,RRIRCRPPRLPRPRPRPNVEPRP,-0.216
25,RRIRSRPPRLPRPRPRPMYLPRP,-0.0356

row,Sequence,shrunken log2 fold change
1,RRIRLRPPRLPRPRPRPMWIPRP,-0.199
2,RRIRKRPPRLPRPRPRPVNKPRP,0.22
3,RRIRVRPPRLPRPRPRPPYPPRP,0.0226
4,RRIRYRPPRLPRPRPRPQRLPRP,-0.131
5,RRIRMRPPRLPRPRPRPCGLPRP,0.533
6,RRIRPRPPRLPRPRPRPWNLPRP,-0.365
7,RRIRSRPPRLPRPRPRPCTRPRP,-0.134
8,RRIRRRPPRLPRPRPRPDSWPRP,0.115
9,RRIRRRPPRLPRPRPRPFSLPRP,0.0919
10,RRIRTRPPRLPRPRPRPELVPRP,0.0224
11,RRIRYRPPRLPRPRPRPSLFPRP,-0.657
12,RRIRARPPRLPRPRPRPCGEPRP,-0.00932
13,RRIRWRPPRLPRPRPRPYCVPRP,-0.521
14,RRIRERPPRLPRPRPRPVRIPRP,-0.0343
15,RRIRVRPPRLPRPRPRPTQKPRP,0.837
16,RRIRWRPPRLPRPRPRPQIVPRP,0.0235
17,RRIRLRPPRLPRPRPRPRNKPRP,-0.156
18,RRIRQRPPRLPRPRPRPFWGPRP,-0.0312
19,RRIRHRPPRLPRPRPRPLRGPRP,1.02
20,RRIRGRPPRLPRPRPRPLGLPRP,0.841
21,RRIRVRPPRLPRPRPRPTLMPRP,0.169
22,RRIRNRPPRLPRPRPRPEWVPRP,0.0314
23,RRIRNRPPRLPRPRPRPVFHPRP,-0.256
24,RRIRMRPPRLPRPRPRPPVLPRP,-0.122
25,RRIRPRPPRLPRPRPRPWSKPRP,0.00178
